Data reported in paper PMC8297725.

Legend:
[1] = molecular target: Asp181 (UniProt position 181, YGTWPDFGVPE); test: kinetics; settings: 25 °C; constant ionic strength buffer mix (value not stated); 50 mM sodium acetate, 100 mM Tris, 100 mM bis-Tris; steady-state turnover with the substrate pNPP
[2] = molecular target: Cys215 (UniProt position 215, PVVVHCSAGIG); test: kinetics; settings: 25 °C; constant ionic strength buffer mix (value not stated); 50 mM sodium acetate, 100 mM Tris, 100 mM bis-Tris; steady-state turnover with the substrate pNPP
[3] = molecular target: Asp181 (UniProt position 181, YTTWPDFGVPE); test: kinetics; settings: 25 °C; constant ionic strength buffer mix (value not stated); 50 mM sodium acetate, 100 mM Tris, 100 mM bis-Tris; steady-state turnover with the substrate pNPP
[4] = molecular target: Asp356 (UniProt position 356, VGNWPDQTAVS); test: kinetics; settings: 25 °C; constant ionic strength buffer mix (value not stated); 50 mM sodium acetate, 100 mM Tris, 100 mM bis-Tris; steady-state turnover with the substrate pNPP
[5] = molecular target: T1, Cys403 (UniProt position 403, RPVIHCRAGVG); test: kinetics; settings: 25 °C; constant ionic strength buffer mix (value not stated); 50 mM sodium acetate, 100 mM Tris, 100 mM bis-Tris; steady-state turnover with the substrate pNPP
[6] = molecular target: T1, Cys403; test: chemical modification; settings: ligand-free enzyme

PTP1B T177G (Homo sapiens; T177G)
pKa [1]: 6.37 ± 0.28 | pKa [2]: 5.44 ± 0.37

Protein tyrosine phosphatase 1B (PTP1B), wild type (Homo sapiens)
pKa [2]: 5.08 ± 0.20 | pKa [3]: 6.44 ± 0.26

YopH (Yersinia protein tyrosine phosphatase), wild type (Yersinia (species not stated in the article))
pKa [4]: 5.58 ± 0.34 | pKa [5]: 5.02 ± 0.27 | pKa [6]: 4.6 ± 0.2 | pKa ([6]; cited from earlier work): 4.67 ± 0.15
